Source: the supplement of paper PMC9112550, “Optimization of the antimicrobial peptide Bac7 by deep mutational scanning” (BMC Biology, 2022)

test system: Escherichia coli TOP10; experiment: shrunken log2 fold change of peptide-encoding DNA abundance (4.5 h post-induction vs induction); higher = less antimicrobial activity (less host growth inhibition); details: time post-induction: 4.5 h; library: site-saturation at positions 5, 18, 19, 20
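Also: peptides expressed intracellularly from a pBAD plasmid library in pooled LB shake-flask culture, induced with 0.3% L-arabinose, DNA abundance read by NGS, three biological replicates, DESeq2 with apeglm shrinkage.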

Sequence | shrunken log2 fold change
RRIRNRPPRLPRPRPRPARPPRP | 2.86
RRIRNRPPRLPRPRPRPARSPRP | 0.679
RRIRNRPPRLPRPRPRPASFPRP | -0.00784
RRIRNRPPRLPRPRPRPATPPRP | 0.537
RRIRNRPPRLPRPRPRPATWPRP | -0.000853
RRIRNRPPRLPRPRPRPAVCPRP | 0.158
RRIRNRPPRLPRPRPRPAVQPRP | 0.109
RRIRNRPPRLPRPRPRPAWRPRP | 0.526
RRIRNRPPRLPRPRPRPAWYPRP | -0.178
RRIRNRPPRLPRPRPRPCAAPRP | 0.0594
RRIRNRPPRLPRPRPRPCAIPRP | -0.0115
RRIRNRPPRLPRPRPRPCCFPRP | -0.278
RRIRNRPPRLPRPRPRPCDLPRP | -0.0345
RRIRNRPPRLPRPRPRPCEHPRP | -0.162
RRIRNRPPRLPRPRPRPCEYPRP | -0.0196
RRIRNRPPRLPRPRPRPCFDPRP | -0.0482
RRIRNRPPRLPRPRPRPCKRPRP | -0.0122
RRIRNRPPRLPRPRPRPCLGPRP | -0.219
RRIRNRPPRLPRPRPRPCLIPRP | -0.018
RRIRNRPPRLPRPRPRPCLRPRP | -0.0159

Sequence | shrunken log2 fold change
RRIRNRPPRLPRPRPRPCMTPRP | 0.0616
RRIRNRPPRLPRPRPRPCNAPRP | -0.0514
RRIRNRPPRLPRPRPRPCQMPRP | -0.0139
RRIRNRPPRLPRPRPRPCQNPRP | -0.835
RRIRNRPPRLPRPRPRPCRSPRP | -0.0607
RRIRNRPPRLPRPRPRPCTCPRP | -0.0075
RRIRNRPPRLPRPRPRPCTFPRP | -0.0494
RRIRNRPPRLPRPRPRPCVFPRP | -0.162
RRIRNRPPRLPRPRPRPCVSPRP | 0.0348
RRIRNRPPRLPRPRPRPCWSPRP | 0.0596
RRIRNRPPRLPRPRPRPDAKPRP | 0.162
RRIRNRPPRLPRPRPRPDASPRP | 0.14
RRIRNRPPRLPRPRPRPDDHPRP | -0.0202
RRIRNRPPRLPRPRPRPDDSPRP | -0.263
RRIRNRPPRLPRPRPRPDFGPRP | -0.0978
RRIRNRPPRLPRPRPRPDFHPRP | -0.441
RRIRNRPPRLPRPRPRPDGSPRP | 0.0143
RRIRNRPPRLPRPRPRPDIMPRP | -0.039
RRIRNRPPRLPRPRPRPDKVPRP | -0.00145
RRIRNRPPRLPRPRPRPDLEPRP | 0.124

Sequence | shrunken log2 fold change
RRIRNRPPRLPRPRPRPDLPPRP | -0.221
RRIRNRPPRLPRPRPRPDLQPRP | -0.0156
RRIRNRPPRLPRPRPRPDMWPRP | -0.119
RRIRNRPPRLPRPRPRPDNLPRP | -1.04
RRIRNRPPRLPRPRPRPDQSPRP | 0.00307
RRIRNRPPRLPRPRPRPDQWPRP | 0.0039
RRIRNRPPRLPRPRPRPDRCPRP | -0.0122
RRIRNRPPRLPRPRPRPDSEPRP | -0.0671
RRIRNRPPRLPRPRPRPDSFPRP | -0.0232
RRIRNRPPRLPRPRPRPDSPPRP | -0.0758
RRIRNRPPRLPRPRPRPDTIPRP | -0.145
RRIRNRPPRLPRPRPRPDVNPRP | -0.00804
RRIRNRPPRLPRPRPRPDYTPRP | 0.115
RRIRNRPPRLPRPRPRPEAEPRP | 0.497
RRIRNRPPRLPRPRPRPEAVPRP | 0.0335
RRIRNRPPRLPRPRPRPEAWPRP | -0.0397
RRIRNRPPRLPRPRPRPEDFPRP | 0.0401
RRIRNRPPRLPRPRPRPEELPRP | 0.678
RRIRNRPPRLPRPRPRPEEQPRP | 0.202
RRIRNRPPRLPRPRPRPEESPRP | 0.013
